The results in this text go back to PMC12167799, “The role of human Shu complex in ATP-dependent regulation of RAD51 filaments during homologous recombination–associated DNA damage response” (The Journal of Biological Chemistry, 2025).

Usually Km stands for the substrate concentration at which the rate is half of its maximum. Broadly, the Vmax is the rate approached at saturating substrate. Broadly, the kcat is the number of substrate molecules converted per active site and unit of time at saturation. The term kcat/Km denotes the second-order rate constant that governs catalysis at low substrate concentration.

Substrate in the data set: Nc1ncnc2c1ncn2[C@@H]1O[C@H](COP(=O)(O)OP(=O)(O)OP(=O)(O)O)[C@@H](O)[C@H]1O
Nature of the data set: malachite green ATPase assay, Michaelis-Menten fit. Conditions: 1 μM protein, no DNA (basal activity), 37 °C. Type of data set: biochemical, Homo sapiens. An excerpt:
malachite green ATPase assay, Michaelis-Menten fit on hSWS1-SWSAP1 (human Shu complex)

B1: hSWS1-SWSAP1 (human Shu complex) (Homo sapiens) (protein)
chain: MPAAGPPLLLLGTPGSGKTALLFAAALEAAGEGQGPVLFLTRRPLQSMPRGTGTTLDPMRLQKIRFQYPPSTRELFRLLCSAHEAPGPAPSLLLLDGLEEYLAEDPEPQEAAYLIALLLDTAAHFSHRLGPGRDCGLMVALQTQEEAGSGDVLHLALLQRYFPAQCWLQPDAPGPGEHGLRACLEPGGLGPRTEWWVTFRSDGEMMIAPWPTQAGDPSSGKGSSSGGQP
notes: heterodimer co-expressed in High Five insect cells (baculovirus); SWSAP1 with TEV-cleavable N-terminal 6xHis tag (cleaved), SWS1 untagged; with Zinc finger SWIM domain-containing protein 7
Take B1: the Km is recorded as 10.0 ± 0.2 mM, the Vmax was determined as 0.75 µM/min, the kcat is 0.0125 s⁻¹ and the catalytic efficiency (kcat/Km) amounted to 1.3 M⁻¹ s⁻¹.
